In patent US10465005B2, “JAML specific binding agents, antibodies, and uses related thereto” (Emory University, priority 2011, dated 2019):

Key:
[1] = target: T1, CHO-JAML-His and CHO JAML-6xMyc (Homo sapiens, UniProt Q86YT9); experiment: FACS staining of stably transfected CHO-JAML cell lines; format: binding; details: FIG. 1A
T1 construct: 6xMyc (cell line CHO JAML-6xMyc); expressed in transfected cells
T1 sequence (Q86YT9 20-394): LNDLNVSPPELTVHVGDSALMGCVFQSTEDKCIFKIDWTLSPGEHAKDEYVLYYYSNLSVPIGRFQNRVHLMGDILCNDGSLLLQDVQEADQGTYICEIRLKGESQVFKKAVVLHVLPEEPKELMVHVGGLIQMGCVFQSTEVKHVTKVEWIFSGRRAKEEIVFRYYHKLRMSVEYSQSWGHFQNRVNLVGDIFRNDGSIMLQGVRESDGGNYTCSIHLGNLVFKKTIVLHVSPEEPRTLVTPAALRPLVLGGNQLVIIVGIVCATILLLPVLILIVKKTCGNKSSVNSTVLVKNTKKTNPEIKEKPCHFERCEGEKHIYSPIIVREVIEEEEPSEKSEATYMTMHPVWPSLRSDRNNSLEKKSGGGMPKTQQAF
From the text: BALB/c mice were immunized with recombinant soluble fragment of JAML.D1D2 tagged with 10 His residues at the C-terminus (sJAML-His), generated in H293T cells and purified by Nickel chromatography. After the 4th boost, mice were given a final immunization and, 3 days later, spleen cells harvested and fused to the myeloma cell line P3U1. Hybridomas were selected in HAT medium and supernatants of clones were subjected to screening first to immobilized, soluble JAML and followed by staining of CHO-JAML stable transfectants. Three hybridomas were selected and antibodies were purified from ascites. FACS staining profiles of mAbs using two different, stably transfected CHO-JAML cell lines, CHO-JAML-His and CHO JAML-6xMyc, both membrane bound and tagged at the C-terminus with either 10-His or 6xMyc. Control antibody is 9E10 anti Myc.
These hybridomas were further tested for reactivity against tagged, full-length JAML expressed on the surface of cultured cells. CHO-JAML-6XMyc transfectants were aliquoted and pelleted into round bottom 96 well plates. 100 μl hybridoma supernatants were added for 1 hr at 4° C. Cells were washed and positive wells were identified by FACS analysis using Goat anti Mouse-AlexaFluor 488. Cells from positive wells were cloned by limiting dilution at one cell per well and expanded first in DMEM-10% FBS containing HAT then in medium containing HT (ATCC) and later DMEM, 10% FBS. The cloned cells of interest were sent to Harlan Laboratories (Indianapolis, Ind.) for production of ascites. Antibodies were purified from ascitic fluid using proteinA-Sepharose (GE Healthcare) followed by dialysis against PBS. Aliquots were frozen at −80° C. Ig subclass of each antibody was determined by using the IsoStrip Mouse Monoclonal Antibody Isotyping Kit (Roche Applied Science). […]
Cells suspensions of adherent cells were prepared by trypsinization with Trypsin-EDTA (Sigma). […] After final washes, cells were analyzed using FACS Calibur. […] All samples were stained for JAML (DW100 mAb) and CD11b/CD18 (CBRM 1/29), and only CD11b/CD18 positive cells (PMNs) were analyzed for JAML expression.

[2] = target: T2, CAR binding to JAML on CHO cells (Homo sapiens, UniProt Q86YT9); experiment: CAR-GST binding to CHO-JAML by flow cytometry; format: cell-based; details: CAR-GST 20 μg/ml, mAbs 30 μg/ml, FIG. 7C
T2 construct: expressed in transfected cells
T2 sequence (Q86YT9 20-394): T1 sequence (Q86YT9 20-394)
Protocol: FIG. 7C. CHO-K1 cells stably expressing JAML (CHO-JAML) were incubated with CAR-GST alone (20 μg/ml, left panel) or in the presence of DW216 and DW100 mAbs (30 μg/ml, right panel) as described for sJAML and the binding was measured by flow cytometry.
As it has been established that epithelial CAR is the ligand for JAML on PMN. Whether shed JAML, as well as the recombinant protein could bind to CAR was investigated. To do this, CHO cells stably expressing CAR protein (CHO-CAR) were incubated with either supernatants from PMA activated differentiated PLB-985 (that release high levels of soluble JAML upon activation, (FIG. 2)), or recombinant soluble JAML and stained with DW216 to detect bound JAML. […] The same observation was verified by IF (FIG. 7B). […] The calcium depletion disrupts intercellular junctions of the epithelium and allows for better penetration of soluble JAML.

- prevention of CAR-GST binding to CHO-JAML [2]: blocked by DW100
B1: DW100: monoclonal anti-human JAML antibody (IgG1,κ), hybridoma ATCC PTA-13051; VH SEQ ID NO:19, VL SEQ ID NO:22 (antibody, V domains shown)
VH: DVQLVESGAELVRPGASKLSCKALAYTFTDYEMHWVKQTPVHGLEWIGIIHPGSGGTVYNQKFKGKATLTADKSSSTAYMELSSLTSEDSTVYYCTRRRYYGSSYNWYFDVWGAGN
VL: VLTQSPASLAASVGETVTITCRASENIYYSLAWYQQKQGKSPQLLIYNANSLEDGVPSRFSGSGSGTQYSLKINSMQPEDTATYFCEQTYDVPLTFGAGTKLEL
- FACS staining of CHO-JAML transfectant lines [1]: stained both transfectant lines equally well
